# Experimental data taken from US20220162313A1 (Xencor, published 2022).
# Target: T1, human SSTR2 (human, UniProt P30874 1-369)
# T1 construct: whole, on cells; also called human somatostatin receptor 2; cell surface human SSTR2
# Test: flow cytometry on human SSTR2-transfected CHO cells, PE-labeled secondary antibody
# Method: Cell surface binding of anti-SSTR2 antibodies and exemplary anti-SSTR2×anti-CD3 bispecific antibodies were assessed using human SSTR2-transfected CHO cells. Cells were incubated with indicated test articles for 45 minutes on ice and centrifuged. Cells were resuspended with staining buffer containing phycoerythrin (PE) labeled secondary antibody (2 μg/mL; goat anti-human IgG) and then incubated for 45 minutes on ice. Cells were centrifuged twice and then resuspsended with staining buffer. Binding was measured by flow cytometry (FIGS. 17A-P).
# Cell surface binding of XmAb18087 and control anti-RSV×anti-CD3 bispecific antibody (XENP13245) were assessed using humanSSTR2-transfected CHO cells and cynoSSTR2-transfected CHO cells. Cell surface binding was also assessed using parental CHO cells as control. Binding was measured by flow cytometry using phycoerythrin (PE) labeled secondary antibody as generally described in Example 1C.
# T1 sequence (P30874 whole entry): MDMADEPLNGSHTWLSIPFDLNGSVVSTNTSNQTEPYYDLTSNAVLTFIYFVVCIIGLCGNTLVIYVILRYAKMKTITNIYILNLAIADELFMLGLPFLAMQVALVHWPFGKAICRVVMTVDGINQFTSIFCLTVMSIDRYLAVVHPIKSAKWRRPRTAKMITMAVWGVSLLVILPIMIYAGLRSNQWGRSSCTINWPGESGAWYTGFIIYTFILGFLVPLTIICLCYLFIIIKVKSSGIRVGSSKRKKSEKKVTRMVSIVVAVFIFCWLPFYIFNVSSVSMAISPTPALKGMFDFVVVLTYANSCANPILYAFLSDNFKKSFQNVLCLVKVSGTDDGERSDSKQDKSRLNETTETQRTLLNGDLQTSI
binder,measurement,value
"XmAb18087 (bispecific antibody, also called XENP18087; XENP018087) heavy: EVQLVESGGGLVQPGGSLRLSCAASGFTFSDYGMAWFRQAPGKGLEWVSFISNLGYSIYYADSVKGRFTISRDNAKNSLYLQMNSLRAEDTAVYYCARAPYDYDSFDPMDYWGQGTLVTVSSASTKGPSVFPLAPSSKSTSGGTAALGCLVKDYFPEPVTVSWNSGALTSGVHTFPAVLQSSGLYSLSSVVTVPSSSLGTQTYICNVNHKPSDTKVDKKVEPKSCDKTHTCPPCPAPPVAGPSVFLFPPKPKDTLMISRTPEVTCVVVDVKHEDPEVKFNWYVDGVEVHNAKTKPREEEYNSTYRVVSVLTVLHQDWLNGKEYKCKVSNKALPAPIEKTISKAKGQPREPQVYTLPPSREEMTKNQVSLTCDVSGFYPSDIAVEWESDGQPENNYKTTPPVLDSDGSFFLYSKLTVDKSRWEQGDVFSCSVMHEALHNHYTQKSLSLSPGK not shown light: not shown",binding result,binds
